According to patent publication US20200397816A1, “METHODS TO TREAT INFLAMMATORY AND SMOOTH MUSCLE CELL PROLIFERATION DISORDERS” (THE TRUSTEES OF INDIANA UNIVERSITY, priority 2019, published 2020):
Entries after “also recorded” stand apart in the source; their conditions may differ.

Legend:
Cyclin D1 = Cyclin D1 western blot in hPASMC; assay type: cell-based, human; conditions: SMCs; 48 hours of EMAP II stimulation
Description: (§1) RAW 264.7 (ATCC) mouse macrophages and Human Embryonic Kidney (HEK) 293T cells were cultured in DMEM media with 10% fetal bovine serum […] and glutamine HEPES buffer and beta-mercaptoethanol were added to the growth medium used for RAW 264.7 macrophages. […]
(§2) After appropriate treatments, protein lysates were prepared by using RIPA buffer supplemented with phosphatase and protease inhibitors (Thermo Fischer Scientific). […] Western blots were performed according to standard methods and quantified using densitometry using Image Studio Lite software from LI-COR Biosciences. […]
(§3) After appropriate treatments, protein lysates were prepared by using RIPA buffer supplemented with phosphatase and protease inhibitors (Thermo Fisher Scientific). […] Western blots were performed according to standard methods and quantified using densitometry using Image Studio Lite software from LI-COR Biosciences.

pSphK1 (Ser225) = pSphK1 (Ser225) immunoblotting and immunofluorescence in hPASMC; assay type: cell-based, human; conditions: SMCs
Description: as §1, §2
as §3, with “Biosciences. […]” for “Biosciences.”

pSTAT3 (Y705) = test: EMAP II induced pSTAT3 western blot in RAW 264.7 macrophages; assay type: cell-based, mouse; conditions: macrophages; EMAP II 24 hours
Description: (§4) After appropriate treatments, protein lysates were prepared by using RIPA buffer supplemented with phosphatase and protease inhibitors (Thermo Fischer Scientific). Alpha-tubulin was used as a loading control. For nuclear and cytoplasmic fractionation, NE-PER kit from Thermo Fischer Scientific was used. Western blots were performed according to standard methods and quantified using densitometry using Image Studio Lite software from LI-COR Biosciences.
as §4, with “(Thermo Fisher” for “(Thermo Fischer”

pERK1/2 = pERK1/2 western blot time course in RAW 264.7 macrophages; assay type: cell-based, mouse
Description: (§5) RAW 264.7 (ATCC) mouse macrophages and Human Embryonic Kidney (HEK) 293T cells were cultured in DMEM media with 10% fetal bovine serum […] and glutamine HEPES buffer and beta-mercaptoethanol were added to the growth medium used for RAW 264.7 macrophages. Primary human pulmonary artery smooth muscle cells (hPASMC) purchased from Lonza (Walkersville, Md.) were cultured in complete growth medium containing smooth muscle growth media-2 (SmGM-2) with 10% FBS and growth factors provided as a kit by the supplier (Lonza, (Walkersville, Md.). THP-1 human monocyte cells were cultured in RPMI 1640 with 10% FBS and glutamine Cells were cultured in a humidified atmosphere with 5% CO2 at 370 C. For all studies passages 5-14 were used for RAW 264.7 and passages 5-10 were used for hPASMCs. For treatment studies, subconfluent cells plated in multi-well plates were serum starved and if required, pretreated for with inhibitors before stimulating with 2 μg/mL recombinant EMAP II.
as §4
(§6) RAW 264.7 (ATCC) mouse macrophages and HEK-293T (ATCC) cells were cultured in DMEM media with 10% (v/v) fetal bovine serum (FBS) and 2 mM glutamine HEPES buffer and beta-mercaptoethanol were added to the growth medium used for RAW 264.7 macrophages. […]
as §3

EGR1 = EGR1 protein western blot and immunofluorescence in hPASMC; assay type: cell-based, human; conditions: SMCs
Description: as §5, §4
Primary hPASMCs cells or human THP-1 macrophages were seeded in Nunc Lab-Tek™ II 4-well imaging plates (Thermo Fisher Scientific) chamber well slides and cultured in growth medium. After the serum starvation cells were stimulated with EMAP II. Treated cells were rinsed with PBS and fixed with 4% paraformaldehyde at room temperature for 15 min and permeabilized with 0.1% Triton X-100 at room temperature for 10 min After washing with PBS three times, the cells were incubated with EGR1, 1amin, or pSphK1 antibody at 40C overnight. The cells were then rinsed with PBS three times and subsequently incubated with respective secondary antibody conjugated with Alex Fluor 647 and 488 or Phalloidin 488 at room temperature for 1 h. The cells were rinsed with PBS three times and coverslips were mounted with SlowFade Gold Antifade Mountant with DAPI (Thermo Fischer Scientific) and the cells were examined under Olympus microscope with 40× for EGR1 expression and with 60× for pSphK1 water immersion.
Knockdown of endogenous EGR1 was carried out by transfecting with 25 nM final concentration of ON-TARGETplus siRNAs specific for EGR1 or non-targeting control purchased from GE Dharmacon (Lafayette,CO) using Viromer Blue (Lipocalyx) per manufacturer's instructions. Cells were stimulated with EMAP II 48 h post-transfection.
as §6

S1P = test: Lung tissue S1P by HPLC/MS/MS in neonatal mice; assay type: in vivo, mouse; conditions: neonatal C57BL/6 mice; recombinant EMAP II subQ days of life 3-15; postnatal day 15 lungs
Description: Animal experimental procedure was performed in accordance with the guidelines issued by the University of Notre Dame/Indiana University Institutional Animal and Use Committee. Lung tissues were harvested from postnatal day 15 C57BL/6 mice (Jackson laboratories) that were injected with either EMAP II or PBS at Day 3. Total protein was extracted and quantified. 1 mg of total protein was subjected to S1P quantification by HPLC/MS/MS.
Collected cells were rinsed with PBS, pelleted. Cell pellets and 1 mg of protein tissue extracts were frozen at −80° C. Sphingolipids extraction and analysis was carried out at the Medical University of South Carolina (MUSC) core facility using eight-point calibration curves generated for each target analyte by High Performance Liquid Chromatography-Tandem Mass Spectrometry (HPLC/MS/MS) system operating in positive multiple reaction-monitoring (MRM) mode engaging a gradient elution. Sphingolipids were normalized to inorganic phosphate levels in PASMC which was determined from the Bligh & Dyer lipid extraction method. Biological samples were from different passages collected on different days.

B1: EMAP II: 6x-His tagged recombinant EMAP II, cleaved C-terminal peptide of AIMP1 (SEQ ID NO: 2), pro-inflammatory cytokine (protein)
chain: IAGSADSKPIDVSRLDLRIGCIITARKHPDADSLYVEEVDVGEIAPRTVVSGLVNHVPLEQMQNRMVILLCNLKPAKMRGVLSQAMVMCASSPEKIEILAPPNGSVPGDRITFDAFPGEPDKELNPKKKIWEQIQPDLHTNDECVATYKGVPFEVKGKGVCRAQTMSNSGIK
Cyclin D1
  cyclin D1 expression: modulates cyclin D1; also recorded: marked increase
pSphK1 (Ser225); immunostaining pSphK1 and actin, 15 minutes, 1 hour, 6 hours EMAP II
  pSphK1 localization to the plasma membrane: stimulated translocation; also recorded: trafficked to the plasma membrane; also recorded: increased pSPHK1 signal
pSphK1 (Ser225); peaks at 1 and 6 hours of EMAP II
  SphK1 phosphorylation (pSphK1/Tubulin): bi-modal SphK1 phosphorylation; also recorded: bimodal SPHK1 phosphorylation
pSTAT3 (Y705)
  STAT3 activation (pSTAT3): induced STAT3 activation
pERK1/2
  earliest time of pERK1/2 activation: 5 minutes
  time of pERK1/2 peak: 1 hour
pERK1/2; 24-hour time course
  ERK1/2 phosphorylation (pERK1/2 normalized to ERK1/2): induced ERK1/2 phosphorylation; also recorded: bi-modal activation; also recorded: bimodal activation
EGR1; 1 to 2 hours following EMAP II
  EGR1 expression in whole cell lysates: significant upregulation
EGR1; EMAP II 2 μg/mL, at 1 hour
  upregulation of nuclear EGR1 expression: 2.5 fold
EGR1; EMAP II 1 hour
  nuclear EGR1 expression by immunofluorescence vs control: significantly elevated
S1P
  whole lung S1P levels compared to control: significantly increased; also recorded: significant increase
